In series [1] the test system is holo-ZmaD.
For series [2], the system named is holo-ZmaH.
Series [3] concerns the target T1, holo-ZmaD.
T1 chain: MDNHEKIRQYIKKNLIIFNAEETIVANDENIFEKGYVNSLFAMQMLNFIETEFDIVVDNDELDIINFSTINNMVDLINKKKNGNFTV

Series [4] concerns the target holo-ZmaH. This is another data set of the same source.

Consider ZmaJ, for which the “aminoacylation of holo-ZmaD (holo-ZmaD replaced holo-ZmaH)” value in the series on holo-ZmaD [1] is listed as “ZmaJ was not able to aminoacylate holo-ZmaD”. For the same molecule, in the series with holo-ZmaH [2], the “formation of seryl-ZmaH (HPLC elution shift and MS mass of holo-ZmaH)” value is “Incubation of holo-ZmaH with ZmaJ, L-Ser, and ATP resulted in a change in the holo-ZmaH elution time from the HPLC, and the mass of the purified product was consistent with the formation of seryl-ZmaH”.

B1: ZmaN (protein)
chain: MSKEIKCVVWDLDCTIWDGVLLESGTVTLKPGIYEIICELDRRGILQSVASKNNYEDAIAKLREFGIEEYFLYPEIHWNSKSSSIEKIRKNLNIGIDTFAFIDDQPFELEEVQSVHNDILCIHVNEYKSLLDLPRLQPKRITEDSGRRRLMYLENLKRTKDEEEYEGPKEEFLASLGMNFVISEAREEDLQRAEELTVRTNQLNSTGITYDYDELNYYRNHPDYLLLVCELSDKYGSYGKIGLTLVKRTEEADCLKLLLMSCRVMSRGVGTILLTYLMERTKQAGKRFLAEFRQTDRNRMMFVTYRLAGFKETSNENGILILEHNLENINPYPHYINIQFPETPTDVDRGEVEICNKQL
As to B1, in the series with holo-ZmaD [3], the “formation of glyceryl-ZmaD (HPLC elution shift and MALDI-TOF MS mass shift of holo-ZmaD)” value was “The mass of holo-ZmaD had shifted to be consistent with the formation of glyceryl-ZmaD”; the “rate of holo-ZmaD modification, with 3-PGPK” value turned out to be 1.44 nmol min-1 with 3-PGPK; the “rate of holo-ZmaD modification, without 3-PGPK” value was determined as 0.08 nmol min-1 without 3-PGPK. In addition, the “formation of glyceryl-ACP (control reaction in which holo-ZmaH replaced holo-ZmaD)” value in the series with holo-ZmaH [4] is reported as “holo-ZmaH was not a substrate for ZmaN-catalyzed formation of glyceryl-ACP”.
